Data from patent US20230134571A1 (INTERNATIONAL AIDS VACCINE INITIATIVE, published 2023).
Where a chain is given by its changes, count along the chain named.

B1: ePGDM13 (antibody, V domains shown)
VH: QAQLVQSGPEVRKPGTSVKVSCKNPGNTLTTYDLHWVRQVPGQGLQWMGWISHEGDKKVIVERFKAKVTIDWDRSTNTAYLQLSGLTSEDTAVYYCAKGSKHRLRDYALYDEDGALNWAVDVDYLANLEFWGQGTAVTVSS
VL: DIVLTQSPLSLSVTPGESASISCKSSHSLQHGDRNNYLAWYVQKPGRSPQLLLDLASERASGVPDRFSGSGSEKDFTLKISRVETEDVGTYYCMQGRESPWTFGQGTKVDIK
B2: ePGDM5 (antibody, V domains shown)
VH: B1 VH
VL: B1 VL with I2F, S26D, L53I, E73R, S81D, T85A
B3: ePGDM9 (antibody, V domains shown)
VH: B1 VH
VL: B1 VL with H27Q, Q30I, L53I, E73R
B4: PGDM1400 (antibody, V domains shown)
VH: B1 VH with A2V, Q3H, V5T, N24A, T30K, Q39S, E89G, E112D, A126S
VL: B1 VL with I2F, L9H, Q30I, L53I, D54Y, E58S, E73D

These binders were tested against HIV Env of isolate 89-F1_2_25 (clade CD) (HIV) (assay: cell-based or functional assay).

Row | Binder | IC50 (µg/ml) with constrains [µg/mL]
1 | B1 | 0.001
2 | B2 | 0.001
3 | B3 | 0.001
4 | B4 | 0.003

The binders below were run against HIV Env of isolate Q23.17 (clade A) (HIV) (assay: cell-based or functional assay).

Row | Binder | IC50 (µg/ml) with constrains [µg/mL] | IC80 (µg/ml) with constrains [µg/mL]
5 | B1 | 0.001 | 0.004
6 | B2 | 0.001 | 0.004
7 | B3 |  | 0.002
8 | B4 | 0.001 | 0.005

What follows are binders tested against HIV Env of isolate P0402_C2_11 (clade G) (HIV) (assay: cell-based or functional assay).

Row | Binder | IC50 (µg/ml) with constrains [µg/mL]
9 | B1 | 0.001
10 | B2 | 0.004
11 | B3 | 0.001
12 | B4 | 0.007

These binders were tested against HIV Env of isolate X2088_C9 (clade G) (HIV) (assay: cell-based or functional assay).

Row | Binder | IC50 (µg/ml) with constrains [µg/mL]
13 | B1 | 64.1
14 | B2 | 28.6
15 | B3 | > 100
16 | B4 | > 100

What follows are binders tested against HIV Env of isolate Q842.d12 (clade A) (HIV) (assay: cell-based or functional assay).

Row | Binder | IC50 (µg/ml) with constrains [µg/mL] | IC80 (µg/ml) with constrains [µg/mL]
17 | B1 | > 100 | > 100
18 | B2 | > 100 | > 100
19 | B3 | > 100 | > 100
20 | B4 | > 100 | > 100

What follows are binders tested against HIV Env of isolate 6540.v4.c1 (clade AC) (HIV) (assay: cell-based or functional assay).

Row | Binder | IC50 (µg/ml) with constrains [µg/mL] | IC80 (µg/ml) with constrains [µg/mL]
21 | B1 | 0.015 | 0.06
22 | B2 | 0.012 | 0.05
23 | B3 | 0.008 | 0.031
24 | B4 | 0.007 | 0.026

These binders were tested against HIV Env of isolate BJOX028000.10.3 (clade AE) (HIV) (assay: cell-based or functional assay).

Row | Binder | IC50 (µg/ml) with constrains [µg/mL] | IC80 (µg/ml) with constrains [µg/mL]
25 | B1 | 0.035 | 0.139
26 | B2 | 0.021 | 0.086
27 | B3 | 0.019 | 0.078
28 | B4 | 0.121 | 0.483

The binders below were run against HIV Env of isolate C1080.c03 (clade AE) (HIV) (assay: cell-based or functional assay).

Row | Binder | IC50 (µg/ml) with constrains [µg/mL] | IC80 (µg/ml) with constrains [µg/mL]
29 | B1 | 0.001 | 0.003
30 | B2 | 0.003 | 0.011
31 | B3 | 0.001 | 0.004
32 | B4 | 0.001 | 0.005

The binders below were run against HIV Env of isolate C3347.c11 (clade AE) (HIV) (assay: cell-based or functional assay).

Row | Binder | IC50 (µg/ml) with constrains [µg/mL] | IC80 (µg/ml) with constrains [µg/mL]
33 | B1 | 0.009 | 0.037
34 | B2 | 0.005 | 0.021
35 | B3 | 0.003 | 0.011
36 | B4 | 0.015 | 0.061

The binders below were run against HIV Env of isolate C4118.c09 (clade AE) (HIV) (assay: cell-based or functional assay).

Row | Binder | IC50 (µg/ml) with constrains [µg/mL] | IC80 (µg/ml) with constrains [µg/mL]
37 | B1 | 0.001 | 0.005
38 | B2 |  | 0.002
39 | B3 | 0.001 | 0.005
40 | B4 | 0.002 | 0.006

The binders below were run against HIV Env of isolate T235-47 (clade AG) (HIV) (assay: cell-based or functional assay).

Row | Binder | IC50 (µg/ml) with constrains [µg/mL] | IC80 (µg/ml) with constrains [µg/mL]
41 | B1 | 0.005 | 0.019
42 | B2 | 0.005 | 0.022
43 | B3 | 0.004 | 0.017
44 | B4 | 0.011 | 0.044

Each binder was assayed against HIV Env of isolate 62357_14_D3_4589 (clade B) (HIV) (assay: cell-based or functional assay).

Row | Binder | IC50 (µg/ml) with constrains [µg/mL]
45 | B1 | 17.4
46 | B2 | 9.98
47 | B3 | 9.51
48 | B4 | > 100

The binders below were run against HIV Env of isolate 0260.v5.c36 (clade A) (HIV) (assay: cell-based or functional assay).

Row | Binder | IC50 (µg/ml) with constrains [µg/mL] | IC80 (µg/ml) with constrains [µg/mL]
49 | B1 | 0.025 | 0.098
50 | B2 | 0.021 | 0.084
51 | B3 | 0.018 | 0.073
52 | B4 | 0.035 | 0.14

These binders were tested against HIV Env of isolate REJO4541.67 (clade B) (HIV) (assay: cell-based or functional assay).

Row | Binder | IC50 (µg/ml) with constrains [µg/mL]
53 | B1 | 0.002
54 | B2 | 0.001
55 | B3 | 0.001
56 | B4 | 0.004

What follows are binders tested against HIV Env of isolate TRO.11 (clade B) (HIV) (assay: cell-based or functional assay).

Row | Binder | IC50 (µg/ml) with constrains [µg/mL]
57 | B1 | 0.352
58 | B2 | 0.315
59 | B3 | 0.163
60 | B4 | 0.206

The binders below were run against HIV Env of isolate WEAU_d15_410_5017 (clade B) (HIV) (assay: cell-based or functional assay).

Row | Binder | IC50 (µg/ml) with constrains [µg/mL]
61 | B1 | 0.003
62 | B2 | 0.001
63 | B3 | 0.002
64 | B4 | 0.075

These binders were tested against HIV Env of isolate CNE53 (clade BC) (HIV) (assay: cell-based or functional assay).

Row | Binder | IC50 (µg/ml) with constrains [µg/mL]
65 | B1 | 0.015
66 | B2 | 0.02
67 | B3 | 0.007
68 | B4 | 0.026

These binders were tested against HIV Env of isolate Ce1176_A3 (clade C) (HIV) (assay: cell-based or functional assay).

Row | Binder | IC50 (µg/ml) with constrains [µg/mL]
69 | B1 | 0.031
70 | B2 | 0.022
71 | B3 | 0.022
72 | B4 | 0.526

These binders were tested against HIV Env of isolate Ce703010054_2A2 (clade C) (HIV) (assay: cell-based or functional assay).

Row | Binder | IC50 (µg/ml) with constrains [µg/mL]
73 | B1 | 0.008
74 | B2 | 0.008
75 | B3 | 0.008
76 | B4 | 0.014

The binders below were run against HIV Env of isolate Du156.12 (clade C) (HIV) (assay: cell-based or functional assay).

Row | Binder | IC50 (µg/ml) with constrains [µg/mL]
77 | B1 | 0.006
78 | B2 | 0.006
79 | B3 | 0.004
80 | B4 | 0.006

What follows are binders tested against HIV Env of isolate 9004SS_A3_4 (clade A) (HIV) (assay: cell-based or functional assay).

Row | Binder | IC50 (µg/ml) with constrains [µg/mL] | IC80 (µg/ml) with constrains [µg/mL]
81 | B1 | > 100 | > 100
82 | B2 | > 100 | > 100
83 | B3 | > 100 | > 100
84 | B4 | > 100 | > 100

Each binder was assayed against HIV Env of isolate HIV-001428-2.42 (clade C) (HIV) (assay: cell-based or functional assay).

Row | Binder | IC50 (µg/ml) with constrains [µg/mL]
85 | B1 | 0.003
86 | B2 | 0.003
87 | B3 | 0.002
88 | B4 | 0.014
